Series [1] is described as follows: Storage modulus (G′) by rheometer. It is filed as physicochemical. To be noted: for storage modulus (G′), comparison in words: at 30 rad/s. The method, then:
The crosslinking time and storage modulus (G′) were analyzed using a rheometer. Hydrogel samples with 20 mm diameter and 5 mm thickness were prepared. The crosslinking time was measured over time at an oscillation frequency of 1 Hz and a stress sweep of 10 Pa. The storage modulus was measured at an oscillation frequency of 1 Hz and a stress sweep of 1-100 Pa. All measurements were performed in triplicate and averaged.
Specifically, the storage modulus G′ was obtained by oscillatory shear measurements at room temperature using a constant stress rheometer (Discovery Hybrid Rheometer-3 from TA Instruments, USA). For the measurements, hydrogel samples with a defined shape of 20 mm diameter and 5 mm thickness were prepared. The cured hydrogel was placed on a lower rheometer stage, and an upper rheometer fixture (diameter 20 mm) was lowered until it made contact with the top surface of the sample. The value of G′ was then measured at oscillation frequency 1 Hz in a stress sweep test of 1-100 Pa. This stress sweep was performed in order to determine the limit of the linear viscoelastic range. All the G′ measurements were obtained in triplicate. Error bars in figures represent the standard deviation from the mean value (see FIGS. 7 and 9).
Specifically, it is well known that the mechanical properties of hydrogels are closely related to the crosslinking density. The storage modulus (G′) measured by rheological analysis is a reliable value representing the rigidity of the subjected hydrogel. The G′ of HA-Ty hydrogel without any peptide addition was 156.6 Pa at a strain of 1% at 30 rad/s (see FIG. 10).

A short description of series [2]: Swelling test of lyophilized hydrogels in distilled water. It is filed as physicochemical. To be noted: distilled water at 25° C. The method, then: Swelling and degradation tests on the hydrogels were conducted by the following procedures. First, HA hydrogels were photocrosslinked with different peptide sequences (YYACAYY (SEQ ID: 4), di-YYACAYY (SEQ ID: 5), YYAYY (SEQ ID: 7), YYCYY (SEQ ID; 8), and YYAHAYY (SEQ ID: 6), 0.1 mM each). Swelling experiments were performed by measuring the increase in weight of the lyophilized hydrogels. Lyophilized hydrogels were placed in 1 mL distilled water at 25° C. The swelling ratio (S %) of hydrogels in distilled water was calculated using S %=[(Wt−W0]/W0)]100, where Wt is the weight of the swollen hydrogel at time t, and W0 is the weight of the dry gel at time 0. Degradation tests were performed by measuring the weights of hydrogels in PBS containing 0.01 mg/mL hyaluronidase at different time points.

The nature of series [3]: Solubility of the peptide in hydrogel preparation. The series is classed as physicochemical.
A further series relates to fibroblasts. In words: Cytotoxicity test by MTT assay. The series is classed as cell-based. To be noted: riboflavin 0.1 μM-10 mM, YC7 0.1 μM-1 mM, 24 hr at 37° C. In general terms: Tetrazolium assays rely on reduction of a dye to a coloured formazan, in cell work by metabolically active cells.

Ends that are not written are not given here.

Protocol for fibroblasts: To investigate the biocompatibility of the hydrogels, fibroblasts were used in a cytotoxicity test. Fibroblasts were seeded with the density of 4×10^4/well in 24 well plates. […] Finally, cell toxicity was evaluated by MTT assay. Fibroblasts were grown with the density of 1×10^5/well in 12 well dishes to test their proliferation in different hydrogels. The grown cells area was scratched using pipette tips to create a wound-like environment and the hydrogels were added to 12 transwells, which were then placed in the dishes where cells had been grown. The proliferation effect of cells was evaluated depending on the degree of cell filling in the scratches.

Turning to “YYCYY [YC5, tyrosine-based peptide; the code also labels the HA-Ty hydrogel photocrosslinked with it]”, the “storage modulus (G′), comparison in words” value (from here on “storage modulus … in words”) in series [1] is “higher than that of YH7”. For the substance “YYAYY [YA5, tyrosine-based peptide; the code also labels the HA-Ty hydrogel photocrosslinked with it]”, in series [1], the “storage modulus … in words” value was “higher than that of YH7”. As for “di-YYACAYY (YYACAYYYYACAYY; cysteine pairing not given here; also: dimer of YYACAYY) [DYC7, tyrosine-based peptide; the code also labels the HA-Ty hydrogel photocrosslinked with it]”, the “storage modulus … in words” value in series [1] is on record as “highest G′”. In series [1] (strain of 1% at 30 rad/s, peptide 0.1 mM), the “storage modulus (G′)” value came to 297.6 Pa. In addition, the “swelling ratio, comparison in words” value in series [2] is recorded as “slightly higher than that of YC7”. Besides, the solubility entry in series [3] is reported as “partial insolubility”. For the substance YYACAYY [YC7, YYACAYY], the cytotoxicity entry in the series on fibroblasts is on record as “no cytotoxicity”. Regarding “YYAHAYY [YH7, tyrosine-based peptide; the code also labels the HA-Ty hydrogel photocrosslinked with it]”, in series [1], the “storage modulus … in words” value was “almost the same G′ as HA-Ty”.

The values above are taken from patent US11389568B2, “Tyrosine peptide cross-linked biocompatible hydrogel and method of production” (SEOUL NATIONAL UNIVERSITY R&DB FOUNDATION, priority 2016, dated 2022).
